The experiment concerns the target Recombinant Cyclin H (CCNH) protein with a C-HIS tag (human) (UniProt P51946). As to the kind of experiment: SPR; Biacore T200, 25 °C, 30 μL/min, HBS-EP running buffer; CCNH amine-coupled on a CM5 chip (1200 RU); candidalysin in 1:1 serial dilution, multicycle, association 120 s, dissociation 150 s.

From PMC10899660, “Global fungal-host interactome mapping identifies host targets of candidalysin” (Nature Communications, 2024) come the findings set out here.

Recombinant Cyclin H (CCNH) protein with a C-HIS tag (human), sequence (P51946 whole entry): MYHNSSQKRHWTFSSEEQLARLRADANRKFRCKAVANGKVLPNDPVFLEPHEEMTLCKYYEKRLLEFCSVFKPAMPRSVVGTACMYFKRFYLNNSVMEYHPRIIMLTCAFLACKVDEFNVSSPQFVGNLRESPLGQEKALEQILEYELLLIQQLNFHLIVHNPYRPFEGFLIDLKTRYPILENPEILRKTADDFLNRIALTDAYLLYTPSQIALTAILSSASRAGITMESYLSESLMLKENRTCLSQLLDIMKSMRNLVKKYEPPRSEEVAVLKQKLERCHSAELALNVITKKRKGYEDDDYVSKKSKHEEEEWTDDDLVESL
candidalysin (Ece1-III), synthetic peptide, sequence (Q07730 62-92 limits assumed): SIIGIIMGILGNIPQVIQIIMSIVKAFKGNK

For “candidalysin (Ece1-III), synthetic peptide”, the equilibrium dissociation constant (Kd) was 17.2 nM, the koff amounted to 0.00171 s⁻¹ and the kon was 99200 M⁻¹ s⁻¹.
